In the experiment the target is T1, FGF-5 (Homo sapiens, UniProt P12034).
T1 construct: host or cells: FGF-5 added exogenously to NR6R-3T3 murine fibroblasts
T1 sequence (P12034 21-268): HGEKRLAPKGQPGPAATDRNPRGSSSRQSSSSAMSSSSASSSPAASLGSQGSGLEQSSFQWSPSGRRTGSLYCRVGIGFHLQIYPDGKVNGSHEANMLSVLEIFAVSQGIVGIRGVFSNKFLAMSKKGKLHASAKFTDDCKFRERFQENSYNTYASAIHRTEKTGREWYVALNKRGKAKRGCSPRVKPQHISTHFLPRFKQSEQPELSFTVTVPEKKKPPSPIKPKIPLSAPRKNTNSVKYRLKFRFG
Put plainly: BLA binding assay on FGF-5 coated plates, nitrocefin readout. Conditions: purified peptide-BLA fusions at 0.1 nM, bound to FGF-5. As to the method: This Example describes secondary screening methods used to analyze FGF-5 binding npeptides. Individual clones were picked and grown up in 5 ml LB+5 ppm CMP overnight at 37° C. The cell pastes were then treated with 125μ of B-PER reagent (Pierce) for 30 min with slow mixing. COSTAR plates (96-well) were coated with 0.1 μg (100 μl of 1 μg/ml) FGF-5, carrier-free (R&D Systems #237-F5/CF, Lot #GQ18304A) with gentle rocking at 4° C. overnight, followed by blocking with Superblock blocking buffer (Pierce) for several hours at room temperature. Then, 100 μl B-Per treated supernatant from individual clones from pGV02-L were added to the FGF-5 coated plates. After one hour, plates were washed six times with PBS, 0.05% TWEEN®-20 and 200 μl of nitrocefin assay buffer containing 0.1 mg/ml nitrocefin (Oxoid) was added to measure residual bound beta-lactamase activity, using Abs490/min. Control wells contained pCB04 (See, FIG. 1C) beta-lactamase as a control. […] These clones were sequenced, and the results are provided in Table 1, where the first column is the name of the peptide, the second column is the nucleotide sequence and the third column is the amino acid sequence of the peptide:
Cell pastes were harvested from the 200 ml cell cultures described in Example 6, by centrifugation at 3,000×g for 10 min. The pastes were then treated with 25 ml of B-PER reagent (Pierce) for 40 min with slow mixing. The extract was separated by centrifugation at 20,000 g for 20 min. BLA activity of all liquid fractions was assayed using nitrocefin, and the concentration of fusion proteins in each fraction was calculated assuming the same specific activity as the WT enzyme. Fusion proteins were purified by IMAC chromatography (See, FIG. 4). The imidazole-eluted BLA-active fractions were pooled and the purity was found better than 95% as checked by SDS-PAGE. (See, FIG. 5).
The binding (BLA assay) was repeated using different peptide concentrations to see a dose response. To verify specific binding, the assay was also done using an irrelevant target. The results are shown in FIG. 6 and in Table 2, below.

Take “CRIHLAHKC (synthesized FGF-5 binding peptide) [2H10, tested as BLA fusion]”: the “Percent Bound at 0.1 nM” value was determined as 8%.
Regarding “CHYLLTNYC (synthesized FGF-5 binding peptide) [2H9, tested as BLA fusion]”, the “Percent Bound at 0.1 nM” value amounted to 5%.
For “CLTVLWTTC (synthesized FGF-5 binding peptide) [2E2, tested as BLA and BBI/BCE fusions]”, the “Percent Bound at 0.1 nM” value came out at 7%.
Consider “CEEIWTMLC (synthesized FGF-5 binding peptide) [1A6, tested as BLA and BBI/BCE fusions]”, for which the “Percent Bound at 0.1 nM” value came to 8%.

For the origin of these results see patent US7485618B2, “FGF-5 supported and binding peptides” (Genencor International, Inc., priority 2003, dated 2009).
